Experiment [1] deals with T1, cynomolgus IL-18BP (cynomolgus monkey).
T1 construct: Generated in-house; also called cyIL-18BP; cyno IL-18BP
T1 chain: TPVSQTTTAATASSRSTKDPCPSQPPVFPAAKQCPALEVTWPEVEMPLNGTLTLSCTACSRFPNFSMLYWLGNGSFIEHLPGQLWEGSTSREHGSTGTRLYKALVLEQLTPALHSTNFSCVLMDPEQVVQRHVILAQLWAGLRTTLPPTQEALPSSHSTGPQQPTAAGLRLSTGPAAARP
As to the kind of experiment: ratio of BLI KDs, cyno against human IL-18BP.

Experiment [2] deals with T2, human IL-18BP (interleukin-18 binding protein, isoform A) (human, UniProt O95998 31-194).
T2 sequence: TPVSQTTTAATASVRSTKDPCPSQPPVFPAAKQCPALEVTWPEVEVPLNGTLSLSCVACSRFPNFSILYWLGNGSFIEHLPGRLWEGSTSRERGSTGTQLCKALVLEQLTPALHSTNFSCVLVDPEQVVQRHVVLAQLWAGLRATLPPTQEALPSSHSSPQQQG
As to the kind of experiment: cell-based or functional assay.

The target in experiment [3] is T2, human IL-18BP (interleukin-18 binding …). Nature of the experiment: BLI, affinity column of Table E8. (In general: BLI is a label-free optical method that tracks binding on a fibre tip over time.)
The target is the same in experiment [4]. Nature of the experiment: BLI (Octet), mAb on AHC biosensor.
Experiment [5] addresses T1, cynomolgus IL-18BP. As to the kind of experiment: BLI (Octet), mAb on AHC biosensor.
For experiment [6], the target named is T2, human IL-18BP (interleukin-18 binding …). As to the kind of experiment: cell-based or functional assay. The source holds these as a separate data set.
For experiment [7] the target is unchanged. Nature of the experiment: cell-based or functional assay. This is another data set of the same source.
Experiment [8] has the same target. Nature of the experiment: BLI (Octet), mAb on AHC biosensor. This is another data set of the same source.
The target in experiment [9] is T1, cynomolgus IL-18BP. Nature of the experiment: BLI (Octet), mAb on AHC biosensor.
In experiment [10] the target is hypo-IL-18 (IL-18 tethered to IL-18BP by a flexible linker with TEV site, 6xHis) (human). As to the kind of experiment: BLI.

Like-named read-outs stand apart in the source and are kept apart here.

hypo-IL-18 (IL-18 tethered to IL-18BP by a flexible linker with TEV site, 6xHis) (human), sequence (chain, as listed by the source limits assumed): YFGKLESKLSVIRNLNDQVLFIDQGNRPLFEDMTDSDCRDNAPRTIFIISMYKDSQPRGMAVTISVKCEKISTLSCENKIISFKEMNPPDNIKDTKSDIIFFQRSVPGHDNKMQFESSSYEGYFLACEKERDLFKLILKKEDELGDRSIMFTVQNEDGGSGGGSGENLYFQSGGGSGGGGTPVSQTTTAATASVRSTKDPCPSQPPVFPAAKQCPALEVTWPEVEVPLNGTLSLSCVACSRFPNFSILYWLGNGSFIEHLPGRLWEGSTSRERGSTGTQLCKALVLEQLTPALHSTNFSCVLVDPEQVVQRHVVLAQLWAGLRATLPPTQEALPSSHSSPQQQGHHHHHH

B1: SA307a (antibody, human IgG1, V domains shown)
VH: QVQLQESGPGLVKPSQTLSLTCTVSGYSITQDYNAHWIRQPPGKGLEWIGYIHYSGSTNYNPSLKSRVTISRDTSKNQFSLKLSSVTAADTAVYYCARNYGSIYVNYFDYWGQGTLVTVSS
VL: EIVLTQSPATLSLSPGERATLSCSASSSVSYMYWYQQKPGQAPRPLIYRTSNLASGIPARFSGSGSGTDFTLTISSLEPEDFAVYYCQQYHSYPTFGGGTKVEIK
notes: humanized; human IgG1 (suffix a), kappa
As for B1, the Cyno/human with cynomolgus IL-18BP [1] came to 0.5 ratio. Also, the “EC50 in PBMC Assay 1 (endogenous IL-18BP), IFNγ” value in experiment [2] is 1.6 nM. Also, in [2], the “EC50 in PBMC Assay 2 (precomplexed IL-18BP), IFNγ” value is 1.47 nM. Moreover, the values for the Kd (in [3]; in experiment [4]; in the experiment with cynomolgus IL-18BP [5]) were 0.054 nM, 0.054 nM and 0.027 nM, respectively.

B2: SA309a (antibody, human IgG1, V domains shown)
VH: QVQLQESGPGLVKPSQTLSLTCTVSGYSITSDYNAHWIRQPPGKGLEWIGYIHYSGQTNYNPSLKSRVTISRDTSKNQFSLKLSSVTAADTAVYYCARNYGSIYVNYFDYWGQGTLVTVSS
VL: EIVLTQSPATLSLSPGERATLSCSASSSVSYMYWYQQKPGQAPRPLIYRTSNLASGIPARFSGSGSGTDFTLTISSLEPEDFAVYYCQQYHSYPTFGGGTKVEIK
notes: as for B1
In the case of B2, the Cyno/human with cynomolgus IL-18BP [1] worked out at 0.39 ratio. For the same molecule, in experiment [2], the “EC50 in PBMC Assay 1 (endogenous IL-18BP), IFNγ” value was determined as 2.8 nM. Further, the “EC50 in PBMC Assay 2 (precomplexed IL-18BP), IFNγ” value in experiment [2] is 0.62 nM. Further, the Kd (in general, the equilibrium constant for the complex coming apart) was found to be 0.061 nM in [3], 0.061 nM in experiment [4] and 0.024 nM in the experiment with cynomolgus IL-18BP [5].

B3: SA322a (antibody, human IgG1, V domains shown)
VH: QVQLQESGPGLVKPSQTLSLTCTVSGYSITQDYNAHWIRQPPGKGLEWIGYIHYSGQTNYNPSLKSRVTISRDTSKNQFSLKLSSVTAADTAVYYCARNYGSIYVNYFDYWGQGTLVTVSS
VL: EIVLTQSPATLSLSPGERATLSCSASSSVSYMYWYQQKPGQAPRPLIYRTSNLASGIPARFSGSGSGTDFTLTISSLEPEDFAVYYCQQYHSYPTFGGGTKVEIK
notes: as for B1
For B3, the Cyno/human in the experiment with cynomolgus IL-18BP [1] stood at 0.37 ratio. The “EC50 in PBMC Assay 1 (endogenous IL-18BP), IFNγ” value in [2] is 0.8 nM. Moreover, in [2], the “EC50 in PBMC Assay 2 (precomplexed IL-18BP), IFNγ” value turned out to be 0.53 nM. Moreover, the Kd was 0.054 nM in [3], 0.054 nM in experiment [4] and 0.02 nM with cynomolgus IL-18BP [5].

B4: SA338a (antibody, human IgG1, V domains shown)
VH: QVQLQESGPGLVKPSQTLSLTCTVSGYSITQDYNAHWIRQPPGKGLEWIGYIHYSGQTYYNPSLKSRVTISRDTSKNQFSLKLSSVTAADTAVYYCARNFGSIYVNYFDYWGQGTLVTVSS
VL: EIVLTQSPATLSLSPGERATLSCSASSSVSYMYWYQQKPGQAPRPLIYRTSNLASGIPARFSGSGSGTDFTLTISSLEPEDFAVYYCQLYHSYPTFGGGTKVEIK
notes: as for B1
Consider B4, for which the Cyno/human with cynomolgus IL-18BP [1] is 0.67 ratio. The “EC50 in PBMC Assay 1 (endogenous IL-18BP), IFNγ” value in [2] was 0.5 nM. Besides, the “EC50 in PBMC Assay 2 (precomplexed IL-18BP), IFNγ” value in experiment [2] was 0.33 nM. The Kd worked out at 0.032 nM in experiment [3], 0.032 nM in [4] and 0.024 nM in the experiment with cynomolgus IL-18BP [5].

B5: SA337a (antibody, human IgG1, V domains shown)
VH: QVQLQESGPGLVKPSQTLSLTCTVSGYSITQDYNAHWIRQPPGKGLEWIGYIHYSGQTNYNPSLKSRVTISRDTSKNQFSLKLSSVTAADTAVYYCARNYGSIYVNYFDYWGQGTLVTVSS
VL: EIVLTQSPATLSLSPGERATLSCSASSSVSYMYWYQQKPGQAPRPLIYRTSNLASGIPARFSGSGSGTDFTLTISSLEPEDFAVYYCQLYHSYPTFGGGTKVEIK
notes: as for B1
In the case of B5, in the experiment with cynomolgus IL-18BP [1], the Cyno/human was determined as 0.89 ratio. In addition, in experiment [2], the “EC50 in PBMC Assay 1 (endogenous IL-18BP), IFNγ” value worked out at 1 nM. Moreover, the “EC50 in PBMC Assay 2 (precomplexed IL-18BP), IFNγ” value in [2] amounted to 0.58 nM. The Kd in experiment [3] worked out at 0.047 nM; in experiment [4], 0.047 nM; with cynomolgus IL-18BP [5], 0.042 nM.

B6: SA320a (antibody, human IgG1, V domains shown)
VH: QVQLQESGPGLVKPSQTLSLTCTVSGYSITQDYNAHWIRQPPGKGLEWIGYIHYSGQTYYNPSLKSRVTISRDTSKNQFSLKLSSVTAADTAVYYCARNFGSIYVNYFDYWGQGTLVTVSS
VL: EIVLTQSPATLSLSPGERATLSCSASSSVSYMYWYQQKPGQAPRPLIYRTSNLASGIPARFSGSGSGTDFTLTISSLEPEDFAVYYCQQYHSYPTFGGGTKVEIK
notes: as for B1
In the case of B6, in the experiment with cynomolgus IL-18BP [1], the Cyno/human turned out to be 0.38 ratio. Moreover, the “EC50 in PBMC Assay 1 (endogenous IL-18BP), IFNγ” value in experiment [2] amounted to 0.3 nM. Also, the “EC50 in PBMC Assay 2 (precomplexed IL-18BP), IFNγ” value in experiment [2] was found to be 0.25 nM. Moreover, the Kd in experiment [3] was determined as 0.052 nM; in [4] it was 0.052 nM; in the experiment with cynomolgus IL-18BP [5] it was 0.02 nM.

B7: SA310a (antibody, human IgG1, V domains shown)
VH: QVQLQESGPGLVKPSQTLSLTCTVSGYSITSDYNAHWIRQPPGKGLEWIGYIHYSGSTMYNPSLKSRVTISRDTSKNQFSLKLSSVTAADTAVYYCARNYGSIYVNYFDYWGQGTLVTVSS
VL: EIVLTQSPATLSLSPGERATLSCSASSSVSYMYWYQQKPGQAPRPLIYRTSNLASGIPARFSGSGSGTDFTLTISSLEPEDFAVYYCQQYHSYPTFGGGTKVEIK
notes: as for B1
As for B7, the Cyno/human in the experiment with cynomolgus IL-18BP [1] was 0.16 ratio. In addition, in experiment [2], the “EC50 in PBMC Assay 1 (endogenous IL-18BP), IFNγ” value came to 1.9 nM. The “EC50 in PBMC Assay 2 (precomplexed IL-18BP), IFNγ” value in experiment [2] was determined as 0.94 nM. Besides, the Kd stood at 0.175 nM in experiment [3], 0.175 nM in [4] and 0.028 nM with cynomolgus IL-18BP [5].

B8: SA35a (antibody, human IgG1, V domains shown)
VH: QVQLQQSGAELVRPGVSVKISCKGSGYTFTDYPMHWVKQSHAKSLEWIGVISTYYGDASYNQKFKGKATMTVDKSSSTAYMELARLTSEDSAIYYCARWRGSFDYWGQGTTLTVSS
VL: ENVLTQSPAIMSASPGEKVTMTCRASSSVSSSYLHWYQQKSGASPKLWIYSTSNLASGVPARFSGSGSGTSYSLTISSVEAEDAATYYCQQYSGYHTFGGGTKLEIK
notes: murine variable regions on human IgG1 kappa constant regions
Turning to B8, the “EC50 (nM), HEK293 IL-18 Reporter Assay (SEAP)” value (from here on “EC50 (nM) … (SEAP)”) in [6] is 21 nM. Also, the “EC50 (nM), KG-1 Assay (IFNγ)” value in experiment [7] worked out at 103 nM. Also, the dissociation constant (Kd) in [8] was 11 nM; with cynomolgus IL-18BP [9], 13 nM. For the same molecule, the binding result in experiment [10] is given as “no binding”.

B9: SA32a (antibody, human IgG1, V domains shown)
VH: EVQLQQSGPELVKTGASVKISCKASGYSFTGYYMHWVKQSHGKSLEWIGYISCYNGATSYNQKFKGKATFTVDTSSSTAYMQFNSLTSEDSAVYYCAITLHYAMDYWGQGTSVAS
VL: DIVMTQAAFSNPVTLGTSASISCRSSKSLLHSNGITYLYWYLQKPGQSPQLLIYQMSNLASGVPDRFSSSGSGTDFTLRISRVEAEDVGVYYCAQNLELPWTFGGGTKLEIK
notes: as for B8
Regarding B9, in experiment [6], the “EC50 (nM) … (SEAP)” value is 6.82 nM. In experiment [7], the “EC50 (nM), KG-1 Assay (IFNγ)” value came out at 109 nM. Also, the Kd turned out to be 17 nM in [8] and 19 nM with cynomolgus IL-18BP [9]. Besides, in experiment [10], the binding result is given as “no binding”.

B10: SA34a (antibody, human IgG1, V domains shown)
VH: QVQLQQSGAELARPGASVKLSCKASGYTFTDYYINWVKQRTGQGLEWIGEIYPGSGNTYYNEKFKGKATLTADKSSSTAYMQLSSLTSEDSAVYFCARGYYGRFAYWGQGTLVTVSA
VL: DIVMTQAAFSNPVTLGTSASISCRSSKSLLHSNGITYLYWYLQKPGQSPQLLIYQMSNLASGVPDRFSSSGSGTDFTLRISRVEAEDVGVYYCDQNLELPFTFGSGTKLEIK
notes: as for B8
With B10, the “EC50 (nM) … (SEAP)” value in experiment [6] is 5.02 nM. The “EC50 (nM), KG-1 Assay (IFNγ)” value in experiment [7] was 51 nM. The Kd in experiment [8] worked out at 18 nM; with cynomolgus IL-18BP [9], 12 nM. Also, in experiment [10], the binding result is given as “no binding”.

B11: SA31a (antibody, human IgG1, V domains shown)
VH: QVQLQQPGSELVRPGASVKLSCKASGYTFTSYWMHWVKQRPGQGLEWIGNIYPGSGNTIYDEKFKSKATLTVDTSSSTAYMQLSSLTSEDSAVYYCTRWDNWEGYYFDYWGQGTTLTVSS
VL: DIVMTQAAFSNPVTLGTSASISCRSSKSLLHSNGITYLYWYLQKPGQSPQLLIYQMSNLASGVPDRFSSSGSGTDFTLRISRVEAEDVGVYYCAQNLELPWTFGGGTKLEIK
notes: as for B8
Take B11: the “EC50 (nM) … (SEAP)” value in experiment [6] is 2.62 nM. Further, the “EC50 (nM), KG-1 Assay (IFNγ)” value in experiment [7] came to 185 nM. Also, the values for the Kd (in experiment [8]; with cynomolgus IL-18BP [9]) were 3 nM and 5 nM, respectively. In experiment [10], the binding result is recorded as “no binding”.

B12: SA33a (antibody, human IgG1, V domains shown)
VH: QVQLQQSGAELVRPGVSVKISCKGSGYTFTDYAMHWVKQSHAKSLEWIGVISTYYGDASYNQKFKGKATMTVDKSSSTAYMELARLTSEDSAIYYCARERDYYGSRLFDYWGQGTTLTVSS
VL: EIVLTQSPTTMAASPGEKITITCSANSSISSNYLHWYQQKPGFSPKLLIYGTSNLASGVPARFSGSGSGTSYSLTIGTMEAEDVATYYCQQGSSIPYTFGGGTKLEIK
notes: as for B8
Turning to B12, the “EC50 (nM) … (SEAP)” value in experiment [6] is 0.36 nM. The “EC50 (nM), KG-1 Assay (IFNγ)” value in [7] worked out at 129 nM. In addition, the Kd in [8] is 3 nM; with cynomolgus IL-18BP [9] it was 16 nM. Besides, the binding result in experiment [10] is on record as “no binding”.

Source of the values: US20250368745A1 (published 2025).
